Measured values taken from patent publication US20230183352A1 (published 2023).
Positions count from the first letter of the chain named.

B1: QP14491446 (antibody, V domains shown)
VH: EVQLVESGGGLVQPGGSLRLSCAASGFTFSSFGMHWVRQAPGKGLEWVSYISSGSNSIYYVDTVKGRFTISRDNAKNSLYLQMNSLRDEDTAVYYCARNAYYGNSFDYWGQGTLVTVSS
VL: DIVMTQSPDSLAVSLGERATINCKSSQSLLNSGNQKNYLTWYQQKPGQPPKLLIYWASTRESGVPDRFSGSGSGTDFTLTISSLQAEDVAVYYCQNNYYYPLTFGGGTKVEIK
B2: QP14651462 (antibody, V domains shown)
VH: EVQLVQSGAEVKKPGASVKVSCKASGYTFTSYIMHWVRQAPGQGLEWIGYINPYNDGTKYNEKFKGRVTLTSDKSTSTVYMELSSLRSEDTAVYYCARLGFTTRNAMDYWGQGTLVTVSS
VL: B1 VL with T40A, W56G, S69T, L84V, N97D, Y98H, Y99S, L102F, G106Q, V110L
B3: QP199200 (antibody, V domains shown)
VH: DVQLVESGGGLVQPGGSRKLSCAASGFTFSSFGMHWVRQAPEKGLEWVAYISSGSNSIYYVDTVKGRFTISRDNPKNTLFLQMTSLKSEDTAMYYCARNAYYGNSFDYWGQGTTLTVSS
VL: DIVMTQSPSSLTVTAGEKVTMSCKSSQSLLNSGNQKNYLTWYQQKPGQPPKLLIYWASTRESGVPDRFTGSGSGTVFTLTISSVQAEDLAVYFCQNNYYYPLTFGAGTKLELK
B4: QP14501448 (antibody, V domains shown)
VH: B1 VH with S49A
VL: DIVMTQSPDSLAVSLGERATISCKSSQSLLNSGNQKNYLTWYQQKPGQPPKLLIYWASTRESGVPDRFTGSGSGTVFTLTISSLQAEDVAVYFCQNNYYYPLTFGGGTKVEIKR
B5: QP14491448 (antibody, V domains shown)
VH: B1 VH
VL: B4 VL
B6: QP14511446 (antibody, V domains shown)
VH: B1 VH with S49A, D88S
VL: B1 VL
B7: QP14501446 (antibody, V domains shown)
VH: B1 VH with S49A
VL: B4 VL with S22N, T69S, V76D, F93Y
B8: QP14661460 (antibody, V domains shown)
VH: B2 VH with R38K, R67K, V68A, Y95C
VL: B1 VL with T40A, W56G, N97D, Y98H, Y99S, L102F, G106Q, V110L
B9: QP14651461 (antibody, V domains shown)
VH: B2 VH
VL: B1 VL with T40A, W56G, S69T, N97D, Y98H, Y99S, L102F, G106Q, V110L
B10: QP14501447 (antibody, V domains shown)
VH: B1 VH with S49A
VL: B1 VL with N22S, Y93F
B11: QP14431442 (antibody, V domains shown)
VH: QVQLVQSGAEVKKPGASVKVSCKASGYAFSSYWMNWVRQAPGQGLEWMGQIYPGNGDTTYNGKFKGRVTMTRDTSTSTVYMELSSLRSEDTAVYYCARFVKGNAMDYWGQGTLVTVSS
VL: B1 VL with N22S, L52M, T75I, L84V, N97A, Y99S, L102F, G106Q, V110L
B12: QP14561453 (antibody, V domains shown)
VH: QVQLVQSGAEVKKPGASVKVSCKASGYTFTNYFVHWVRQAPGQGLEWMGYINPYNDDTKYNEKFKGRVTMTRDTSTSTVYMELSSLRSEDTAVYYCLSLRFFAYWGQGTLVTVSS
VL: B1 VL with N22S, P49A, N97D, Y99S
B13: QP14561455 (antibody, V domains shown)
VH: B12 VH
VL: B1 VL with N22S, P49A, S69I, L84V, Y93F, N97D, Y99S
B14: QP14441440 (antibody, V domains shown)
VH: B11 VH with M48I, R72A, T74K
VL: B1 VL with N22S, N97A, Y99S, L102F, G106Q, V110L
B15: QP201202 (antibody, V domains shown)
VH: EVQLQQSGPELVKPGASVKMSCKASGYTFTNYFVHWVKQKPGQGLEWIGYINPYNDDTKYNEKFKGKATLTSDKSSSTAYMDLSSLTSEDSAVYYCLSLRFFAYWGQGTLVTVSA
VL: B3 VL with P49A, T69I, V76D, S83H, N97D, Y99S, K109N
B16: QP14441439 (antibody, V domains shown)
VH: B11 VH with M48I, R72A, T74K
VL: B1 VL with N97A, Y99S, L102F, G106Q, V110L
B17: QP14431441 (antibody, V domains shown)
VH: B11 VH
VL: B1 VL with N22S, T75I, L84V, N97A, Y99S, L102F, G106Q, V110L
B18: QP14571454 (antibody, V domains shown)
VH: B12 VH with M48I, M70L
VL: B1 VL with N22S, P49A, L84V, Y93F, N97D, Y99S
B19: QP14581453 (antibody, V domains shown)
VH: B12 VH with R38K, M48I, R67K, V68A, M70L
VL: B4 VL with P49A, T69S, V76D, F93Y, N97D, Y99S
B20: QP14561452 (antibody, V domains shown)
VH: B12 VH
VL: B1 VL with N97D, Y99S
B21: QP14581452 (antibody, V domains shown)
VH: B12 VH with R38K, M48I, R67K, V68A, M70L
VL: B1 VL with N97D, Y99S
B22: QP14571455 (antibody, V domains shown)
VH: B12 VH with M48I, M70L
VL: B1 VL with N22S, P49A, S69I, L84V, Y93F, N97D, Y99S
B23: QP14561454 (antibody, V domains shown)
VH: B12 VH
VL: B4 VL with P49A, T69S, V76D, L84V, N97D, Y99S
B24: QP14571452 (antibody, V domains shown)
VH: B12 VH with M48I, M70L
VL: B1 VL with N97D, Y99S
B25: QP14451441 (antibody, V domains shown)
VH: B11 VH with M48I, R72A, T74K, Y95F
VL: B1 VL with N22S, T75I, L84V, N97A, Y99S, L102F, G106Q, V110L
B26: QP14581454 (antibody, V domains shown)
VH: B12 VH with R38K, M48I, R67K, V68A, M70L
VL: B4 VL with P49A, T69S, V76D, L84V, N97D, Y99S
B27: QP14571453 (antibody, V domains shown)
VH: B12 VH with M48I, M70L
VL: B1 VL with N22S, P49A, N97D, Y99S
B28: QP14441442 (antibody, V domains shown)
VH: B11 VH with M48I, R72A, T74K
VL: B1 VL with N22S, L52M, T75I, L84V, N97A, Y99S, L102F, G106Q, V110L

These binders were tested against T1, Claudin 18.2 (CLDN18.2), expressed on CHOS-CLDN 18.2 / HEK293-CLDN 18.2 / HCC827-CLDN 18.2 cells (human, UniProt P56856 1-261) (assay: cell ELISA).

Row | Binder | EC50 [µg/mL]
1 | B1 | 0.158
2 | B2 | 0.119
3 | B3 | 0.243
4 | B4 | 0.115
5 | B5 | 0.12
6 | B6 | 0.133
7 | B7 | 0.109
8 | B8 | 0.105
9 | B9 | 0.301
10 | B10 | 0.0926

Target: T1, Claudin 18.2 (CLDN18.2), expressed on …
Test: cell ELISA
Remark: another data set of the same source

Row | Binder | EC50 [µg/mL]
11 | B11 | 0.132
12 | B12 | 0.357
13 | B13 | 0.246
14 | B14 | 0.086
15 | B15 | 0.944
16 | B16 | 0.109
17 | B17 | 0.159
18 | B18 | 0.357
19 | B19 | 0.187
20 | B20 | 0.389
21 | B21 | 0.279
22 | B22 | 0.265
23 | B23 | 0.213
24 | B24 | 0.242
25 | B25 | 0.134
26 | B26 | 0.21
27 | B27 | 0.796
28 | B28 | 0.243
